Test results as given in patent publication US7312060.

Key:
[1] = target: APC segment 3 (amino acids 1098-1696), wild type, with N-terminal VSV-G tag and C-terminal P53-derived tag (Vesicular Stomatitis Virus; human) (UniProt P25054); assay: HTS-PTT ELISA on NeutrAvidin plate, HRP chemiluminescence
[2] = target: APC segment 3 (amino acids 1098-1696), wild type, with N-terminal VSV-G tag and C-terminal P53-derived tag (Vesicular Stomatitis Virus; human) (UniProt P25054); assay: HTS-PTT ELISA, 0.1 ul of translation mix per well
[3] = target: APC segment 3 (amino acids 1098-1696), wild type, with N-terminal VSV-G tag and C-terminal P53-derived tag (Vesicular Stomatitis Virus; human) (UniProt P25054); assay: HTS-PTT ELISA on NeutrAvidin plate, alkaline phosphatase chemiluminescence

UniProt P25054, sequence (P25054 other isoform, or with tags, fused parts or gaps limits assumed): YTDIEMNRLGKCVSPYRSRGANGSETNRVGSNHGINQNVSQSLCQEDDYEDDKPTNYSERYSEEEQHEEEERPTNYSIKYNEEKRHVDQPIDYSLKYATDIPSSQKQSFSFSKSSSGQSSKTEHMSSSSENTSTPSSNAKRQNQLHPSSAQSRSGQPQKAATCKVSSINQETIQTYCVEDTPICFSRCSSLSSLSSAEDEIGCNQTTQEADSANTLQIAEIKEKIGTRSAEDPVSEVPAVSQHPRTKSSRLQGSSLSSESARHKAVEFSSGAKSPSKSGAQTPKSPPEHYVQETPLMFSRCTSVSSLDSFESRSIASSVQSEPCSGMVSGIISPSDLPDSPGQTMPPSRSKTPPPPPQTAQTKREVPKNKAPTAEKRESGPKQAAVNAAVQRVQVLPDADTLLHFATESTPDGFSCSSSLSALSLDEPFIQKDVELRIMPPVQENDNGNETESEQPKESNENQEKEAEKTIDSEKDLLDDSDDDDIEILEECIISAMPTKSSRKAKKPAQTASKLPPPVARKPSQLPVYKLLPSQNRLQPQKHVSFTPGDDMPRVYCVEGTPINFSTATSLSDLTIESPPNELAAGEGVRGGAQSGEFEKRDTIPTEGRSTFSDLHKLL

| Substance | signal over background (fold over background) [1] | signal-to-noise ratio [2] | signal over background (fold over background) [3] |
| --- | --- | --- | --- |
| anti-VSV-G-HRP (Roche Applied Sciences) (antibody) | 400 | 10 | – |
| anti-p53-alkaline phosphatase (Santa Cruz Biotechnology) (antibody) | – | 30 | 100 |
